Laboratory results as given in publication PMC2575792.

Biological target: T1, ICAM-1 fused to monomeric EGFP (mEGFP) or to mRFP1, P05362
T1 chain: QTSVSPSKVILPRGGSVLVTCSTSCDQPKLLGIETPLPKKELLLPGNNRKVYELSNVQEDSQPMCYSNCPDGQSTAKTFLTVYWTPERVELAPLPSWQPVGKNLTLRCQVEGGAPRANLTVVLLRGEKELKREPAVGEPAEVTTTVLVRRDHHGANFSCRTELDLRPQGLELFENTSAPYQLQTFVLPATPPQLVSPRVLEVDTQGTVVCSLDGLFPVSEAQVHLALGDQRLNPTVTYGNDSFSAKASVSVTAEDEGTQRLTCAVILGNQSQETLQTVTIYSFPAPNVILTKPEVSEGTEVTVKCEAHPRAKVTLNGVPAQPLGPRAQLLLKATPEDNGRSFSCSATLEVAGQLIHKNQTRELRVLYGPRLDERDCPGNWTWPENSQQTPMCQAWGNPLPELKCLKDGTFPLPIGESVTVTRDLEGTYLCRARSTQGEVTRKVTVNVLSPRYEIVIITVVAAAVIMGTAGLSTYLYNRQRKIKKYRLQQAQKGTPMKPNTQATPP
Experiment: FRET or BRET
Details: remark: other sources report otherwise

FRET efficiency: 14 to 34%
percent of pixels with positive FRET: 12%
B1: ICAM-1 fused to monomeric EGFP (mEGFP) or to mRFP1, P05362 28-532 (receptor)
chain: T1 chain
